# In article PMC3493456:
# B1: 1-bp gapped DNA (dsDNA)
# DNA 1: GCCTCGCAGCCGTCCAACCAAC
# DNA 2: CAACCTCGATCCAATGCCGTCC
# DNA 3: GGACGGCATTGGATCGAGGTTGAGTTGGTTGGACGGCTGCGAGGC
# modifications: 5' phosphate on downstream oligo (S8)
# Columns and labels:
# [1] = biological target: DNA polymerase beta WT (242Pro) (Homo sapiens, UniProt P06746 1-335); assay: EMSA; EMSA as described previously (ref 34); buffer, salt, pH and temperature not given in the material
# [2] = biological target: DNA polymerase beta P242R (rs3136797) (Homo sapiens, UniProt P06746 1-335, P242R); assay: as above
binder,measurement,setting,value
B1,Kd,[1],5 nM
same,Kd,[2],5 nM
